According to patent publication US20220275089A1 (AKESO PHARMACEUTICALS, published 2022):
One block for each binder: values may come before it.

Columns and labels:
C1q [1] = target: T1, C1q (UniProt P02745 23-245; P02746 28-253; P02747 29-245); assay: BLI (Fortebio Octet), antibody on FAB2G sensor, C1q 1.25-20 nM, 1:1 fit
T1 construct: also called serum complement C1q; complement C1q
Protocol: (§1) 50 μg/mL antibody was immobilized on the FAB2G sensor at an immobilization height of about […]. […] The antigen and antibody were dissociated in the buffer for 60 s. The sensor was refreshed 4 times in 10 mM glycine pH 1.7, each for 5 s. The shaking speed of the sample plate was 1000 rpm, the temperature was 30° C. and the frequency was 0.6 Hz. The data were analyzed by 1:1 model fitting to obtain affinity constants. The data acquisition software was Fortebio Data Acquisition 7.0, and the data analysis software was Fortebio Data Analysis 7.0.

FcγRIIb [2] = target: T2, FcγRIIb (UniProt P31994 43-217, limits assumed); assay: BLI (Fortebio Octet), FcγRIIb on NTA sensor, antibody 12.5-200 nM, 1:1 fit
T2 construct: also called CD32b
T2 sequence (looked up): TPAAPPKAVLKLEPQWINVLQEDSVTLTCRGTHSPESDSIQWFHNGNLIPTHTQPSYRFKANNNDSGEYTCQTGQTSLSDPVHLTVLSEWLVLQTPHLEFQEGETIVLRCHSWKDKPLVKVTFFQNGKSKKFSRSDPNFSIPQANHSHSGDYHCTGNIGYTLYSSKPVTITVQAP
Protocol: (§2) 5 μg/mL FcγRIIb was immobilized on the NTA sensor at an immobilization height of about 1.0 nm. […] The antibody was dissociated in the buffer for 60 s. The sensor was refreshed in 10 mM glycine pH 1.7 and 10 nM nickel sulfate. The temperature was 30° C. and the frequency was 0.6 Hz. The data were analyzed by 1:1 model fitting to obtain affinity constants.

FcγRI [3] = target: T3, FcγRI (UniProt P12314 16-288, limits assumed); assay: BLI (Fortebio Octet), FcγRI on HIS1K sensor, antibody 3.12-50 nM, 1:1 fit
T3 construct: construct not described; also called CD64; FcγR1
T3 sequence (P12314 16-288 limits assumed): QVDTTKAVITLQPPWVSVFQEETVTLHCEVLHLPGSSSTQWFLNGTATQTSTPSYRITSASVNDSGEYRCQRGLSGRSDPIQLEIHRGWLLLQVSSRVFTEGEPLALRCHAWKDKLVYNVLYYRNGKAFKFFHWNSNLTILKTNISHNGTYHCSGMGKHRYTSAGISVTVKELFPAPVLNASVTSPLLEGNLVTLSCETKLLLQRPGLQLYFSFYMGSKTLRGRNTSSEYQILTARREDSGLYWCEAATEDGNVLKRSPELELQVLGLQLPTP
Protocol: (§3) A 1 μg/mL FcγRI solution (from Sinobio) was added to the HIS1K sensor to immobilize the FcγRI on the sensor surface for 50 s. […] The sensor with immobilized antigen was equilibrated in the buffer for 60 s, and then the binding of the immobilized FcγRI on the sensor to the antibodies was determined for 120 s; the dissociation of FcγRI from the antibodies was determined in 120 s. The temperature was 30° C. and the frequency was 0.3 Hz. The data were fitted and analyzed with a 1:1 model to obtain the affinity constants to FcγRI for the antibodies.

FcγRI [4] = target: T3, FcγRI; assay: BLI (Fortebio Octet), FcγRI immobilized on HIS1K sensor, antibody in solution at 3.12-50 nM
Protocol: as §3

FcγRIIa_H131 = target: T4, FcγRIIa_H131 (UniProt P12318 34-218); assay: BLI (Fortebio Octet), FcγRIIa_H131 immobilized on NTA sensor, antibody in solution at 12.5-200 nM
T4 construct: H131 polymorphic form
T4 sequence (looked up): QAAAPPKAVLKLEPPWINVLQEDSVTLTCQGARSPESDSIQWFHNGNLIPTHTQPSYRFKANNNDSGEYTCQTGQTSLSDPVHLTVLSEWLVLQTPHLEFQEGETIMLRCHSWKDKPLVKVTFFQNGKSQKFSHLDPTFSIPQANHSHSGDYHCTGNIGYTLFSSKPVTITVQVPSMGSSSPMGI
Protocol: as §2, with “FcγRIIa_H131” for “FcγRIIb”

FcγRIIIa_V158 = target: T5, FcγRIIIa_V158 (UniProt P08637 17-208); assay: BLI (Fortebio Octet), FcγRIIIa_V158 immobilized on HIS1K sensor, antibody in solution at 31.25-500 nM
T5 construct: V158 polymorphic form (mature numbering)
T5 sequence (P08637 17-208 F176V limits assumed): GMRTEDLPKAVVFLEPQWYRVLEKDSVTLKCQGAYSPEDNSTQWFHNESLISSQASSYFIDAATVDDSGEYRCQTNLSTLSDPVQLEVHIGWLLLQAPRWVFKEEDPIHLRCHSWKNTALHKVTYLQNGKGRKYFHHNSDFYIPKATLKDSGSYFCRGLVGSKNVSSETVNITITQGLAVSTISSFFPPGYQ
Protocol: (§4) 5 μg/mL FcγRIIIa_V158 was immobilized on the HIS1K sensor for 120 s. […] The antibody was dissociated in the buffer for 60 s. The sensor was refreshed 4 times in 10 mM glycine pH 1.5, each for 5 s. The temperature was 30° C. and the frequency was 0.3 Hz. The data were analyzed by 1:1 model fitting to obtain affinity constants.

FcγRIIb [5] = target: T2, FcγRIIb; assay: BLI (Fortebio Octet), FcγRIIb immobilized on NTA sensor, antibody in solution at 12.5-200 nM
Protocol: as §2

FcγRIIIa_F158 = target: T6, FcγRIIIa_F158 (UniProt P08637 17-208); assay: BLI (Fortebio Octet), FcγRIIIa_F158 immobilized on HIS1K sensor, antibody in solution at 31.25-500 nM
T6 construct: F158 polymorphic form
T6 sequence (P08637 17-208 limits assumed): as the sequence (P08637 17-208 F176V limits assumed) above, with V160F counted along it
Protocol: as §4, with “FcγRIIIa_F158” for “FcγRIIIa_V158”

C1q [6] = target: T1, C1q; assay: BLI (Fortebio Octet), antibody immobilized on FAB2G sensor, C1q in solution at 1.25-20 nM
Protocol: as §1

T1 sequence (P02745 23-245 limits assumed, chain 1 of 3): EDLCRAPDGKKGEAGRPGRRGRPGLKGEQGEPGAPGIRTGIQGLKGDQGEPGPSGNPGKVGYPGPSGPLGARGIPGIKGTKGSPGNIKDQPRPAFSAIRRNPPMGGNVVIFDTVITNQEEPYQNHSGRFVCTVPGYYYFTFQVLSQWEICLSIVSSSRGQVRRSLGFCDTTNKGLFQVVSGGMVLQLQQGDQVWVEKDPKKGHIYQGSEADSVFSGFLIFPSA
T1 sequence (P02746 28-253 limits assumed, chain 2 of 3): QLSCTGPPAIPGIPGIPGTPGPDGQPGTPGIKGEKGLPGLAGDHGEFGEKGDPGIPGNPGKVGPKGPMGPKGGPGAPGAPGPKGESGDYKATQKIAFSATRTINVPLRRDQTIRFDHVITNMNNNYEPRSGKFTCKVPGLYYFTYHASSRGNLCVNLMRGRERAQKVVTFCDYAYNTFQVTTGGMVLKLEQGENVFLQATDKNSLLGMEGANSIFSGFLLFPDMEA
T1 sequence (P02747 29-245 limits assumed, chain 3 of 3): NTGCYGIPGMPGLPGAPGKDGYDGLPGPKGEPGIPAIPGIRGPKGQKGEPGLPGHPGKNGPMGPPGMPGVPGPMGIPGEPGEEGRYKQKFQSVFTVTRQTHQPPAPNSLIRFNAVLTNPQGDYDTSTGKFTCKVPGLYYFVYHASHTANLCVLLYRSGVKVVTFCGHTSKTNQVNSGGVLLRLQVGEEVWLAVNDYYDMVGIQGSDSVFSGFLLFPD

- Kd (C1q [1]): 4.43 nM
- koff (C1q [1]): 0.0105 s⁻¹
- kon (C1q [1]): 2.38e+06 M⁻¹ s⁻¹
B1: 5C10H2L2-IgG1mt (antibody)
chain 1: not shown
chain 2: EIVLTQSPDTLSVTPKEKVTLTCRASQSIGTNIHWFQQKPGQSPKLLIKYASESISGVPSRFSGSGSGTDFTLTINSVEAEDAATYYCQQSNSWPYTFGQGTKLEIKRTVAAPSVFIFPPSDEQLKSGTASVVCLLNNFYPREAKVQWKVDNALQSGNSQESVTEQDSKDSTYSLSSTLTLSKADYEKHKVYACEVTHQGLSSPVTKSFNRGEC

- Kd (C1q [1]): 2.53 nM
- Kd (FcγRIIb [2]): 56.1 nM
- Kd (FcγRI [3]): 5.92 nM
B2: BiAb004(hG1WT) (bispecific antibody, human IgG1, kappa)
heavy: not shown
light: DIQMTQSPSSMSASVGDRVTFTCRASQDINTYLSWFQQKPGKSPKTLIYRANRLVSGVPSRFSGSGSGQDYTLTISSLQPEDMATYYCLQYDEFPLTFGAGTKLELKRTVAAPSVFIFPPSDEQLKSGTASVVCLLNNFYPREAKVQWKVDNALQSGNSQESVTEQDSKDSTYSLSSTLTLSKADYEKHKVYACEVTHQGLSSPVTKSFNRGEC
notes: IgG-scFv (Morrison format); also called BiAb004(M); BiAh004(M)

- binding result (FcγRI [4]): no binding (tested: 50 nM)
- binding result (FcγRIIa_H131): no binding (tested: 200 nM)
- binding result (FcγRIIIa_V158): no binding (tested: 500 nM)
- binding result (FcγRIIb [5]): no binding (tested: 200 nM)
- binding result (FcγRIIIa_F158): no binding (tested: 500 nM)
- binding result (C1q [6]): no binding (tested: 20 nM)
B3: BiAb004(hG1TM) (bispecific antibody, human IgG1, kappa)
heavy: not shown
light: B2 light
notes: IgG-scFv (Morrison format), anti-PD-1 IgG1 with an anti-CTLA4 scFv on the C terminus of each heavy chain
